# Tested on: engineered chimeric receptor SEQ ID NO: 33 and its mutants (human α7-nAChR ligand binding domain / human GlyRα1 ion pore domain) in Lenti-X 293T cells
# Assay: YFP fluorescence quenching anion reporter plate reader assay (percent quench, EC50)
# Type: cell-based
# Details: for YFP fluorescence quenching using CNL001 (percent quench): receptor named in row; for YFP fluorescence quenching using Varenicline, 3 nM var: ligand Varenicline 3 nM; for YFP fluorescence quenching using Varenicline, 30 nM var: ligand Varenicline 30 nM; for YFP fluorescence quenching using Varenicline, 300 nM var: ligand Varenicline 300 nM; for YFP fluorescence quenching using Varenicline, 500 nM var: ligand Varenicline 500 nM; for YFP fluorescence quenching using Varenicline, 1 uM var: ligand Varenicline 1 uM
# Summary of the method: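 Lenti-X 293T cells co-expressing an anion-quenchable YFP were transiently transfected with receptor DNA, then ligand was added in NaI-substituted buffer (pH 7.2) after 30 min at 37 °C. Fluorescence was read about 2 min; percent quench = mean of last 10 s over 15 s pre-ligand baseline.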
# [1] = 1 nM CNL001, first column so headed
# [2] = 1 nM CNL001, second column so headed
# [3] = 1 nM brd (TC-5619/Bradanicline)
# [4] = 3 nM brd (TC-5619/Bradanicline)
# [5] = 10 nM CNL001, first column so headed
# [6] = 10 nM CNL001, second column so headed
# [7] = 10 nM brd (TC-5619/Bradanicline)
# [8] = 30 nM brd (TC-5619/Bradanicline)
# [9] = 50 nM CNL001, first column so headed
# [10] = 50 nM CNL001, second column so headed
# [11] = 100 nM CNL001, first column so headed
# [12] = 100 nM CNL001, second column so headed
# [13] = 100 nM brd (TC-5619/Bradanicline)
# [14] = 300 nM brd (TC-5619/Bradanicline)
# [15] = 1 uM CNL001, first column so headed
# [16] = 1 uM CNL001, second column so headed
molecule,measurement,setting,value
"CODA1048: engineered receptor: R101F, Y210F in SEQ ID NO: 33 (protein, synthetic sequence of chimeric LGIC) MRCSPGGVWLALAASLLHVSLQGEFQRKLYKELVKNYNPLERPVANDSQPLTVYFSLSLLQIMDVDEKNQVLTTNIWLQMSWTDHYLQWNVSEYPGVKTVFFPDGQIWKPDILLYNSADERFDATFHTNVLVNSSGHCQYLPPGIFKSSCPMDLKNFPMDVQTCKLKFGSWSYGGWSLDLQMQEADISGYIPNGEWDLVGIPGKRSERFFECCKEPYPDVTFTVTMRRRMGYYLIQMYIPSLLIVILSWISFWINMDAAPARVGLGITTVLTMTTQSSGSRASLPKVSYVKAIDIWMAVCLLFVFSALLEYAAVNFVSRQHKELLRFRRKRRHHKSPMLNLFQEDEAGEGRFNFSAYGMGPACLQAKDGISVKGANNSNTTNPPPAPSKSPEEMRKLFIQRAKKIDKISRIGFPMAFLIFNMFYWIIYKIVRREDVHNQ",YFP fluorescence quenching using CNL001 (percent quench),[1],9.114%
same,YFP fluorescence quenching using CNL001 (percent quench),[2],0.845%
same,YFP fluorescence quenching using TC-5619/Bradanicline (percent quench),[3],−2.084%
same,YFP fluorescence quenching using TC-5619/Bradanicline (percent quench),[4],−9.098%
same,YFP fluorescence quenching using CNL001 (percent quench),[5],28.944%
same,YFP fluorescence quenching using CNL001 (percent quench),[6],53.629%
same,YFP fluorescence quenching using TC-5619/Bradanicline (percent quench),[7],−2.587%
same,YFP fluorescence quenching using TC-6683 (percent quench),30 nM TC-6683,−29.055%
same,YFP fluorescence quenching using TC-5619/Bradanicline (percent quench),[8],55.818%
same,YFP fluorescence quenching using CNL001 (percent quench),[9],68.581%
same,YFP fluorescence quenching using CNL001 (percent quench),[10],74.379%
same,YFP fluorescence quenching using ABT-126 (percent quench),50 nM abt (ABT-126),−23.28%
same,YFP fluorescence quenching using CNL001 (percent quench),[11],80.541%
same,YFP fluorescence quenching using CNL001 (percent quench),[12],80.774%
same,YFP fluorescence quenching using ABT-126 (percent quench),100 nM abt (ABT-126),−21.78%
same,YFP fluorescence quenching using TC-5619/Bradanicline (percent quench),[13],76.957%
same,YFP fluorescence quenching using TC-6683 (percent quench),300 nM TC-6683,−33.935%
same,YFP fluorescence quenching using ABT-126 (percent quench),300 nM abt (ABT-126),−19.35%
same,YFP fluorescence quenching using TC-5619/Bradanicline (percent quench),[14],74.268%
same,YFP fluorescence quenching using CNL001 (percent quench),[15],83.143%
same,YFP fluorescence quenching using CNL001 (percent quench),[16],81.751%
same,YFP fluorescence quenching using ABT-126 (percent quench),1 uM abt (ABT-126),−16.33%
same,YFP fluorescence quenching using TC-6683 (percent quench),3 uM TC-6683,−24.613%
same,YFP fluorescence quenching using TC-6683 (percent quench),30 uM TC-6683,−21.752%
same,YFP fluorescence quenching using TC-6683 (percent quench),100 uM TC-6683,−22.815%
same,YFP fluorescence quenching (percent quench),100 uM ach (acetylcholine),−17.31%
same,YFP fluorescence quenching (percent quench),300 uM ach (acetylcholine),−13.7%
same,YFP fluorescence quenching (percent quench),500 uM ach (acetylcholine),−10.1%
same,YFP fluorescence quenching (percent quench),1 mM ach (acetylcholine),5.53%
same,YFP fluorescence quenching (percent quench),3 mM ach (acetylcholine),68.61%
same,YFP fluorescence quenching (percent quench),10 mM ach (acetylcholine),78.22%
same,"YFP fluorescence quenching using Varenicline, 3 nM var",first column,−17.119
same,"YFP fluorescence quenching using Varenicline, 3 nM var",second column,−13.234
same,"YFP fluorescence quenching using Varenicline, 30 nM var",first column,−7.747
same,"YFP fluorescence quenching using Varenicline, 30 nM var",second column,4.193
same,"YFP fluorescence quenching using Varenicline, 300 nM var",first column,4.149
same,"YFP fluorescence quenching using Varenicline, 300 nM var",second column,1.512
same,"YFP fluorescence quenching using Varenicline, 500 nM var",first column,−1.572
same,"YFP fluorescence quenching using Varenicline, 500 nM var",second column,3.71
same,"YFP fluorescence quenching using Varenicline, 1 uM var",first column,8.414
same,"YFP fluorescence quenching using Varenicline, 1 uM var",second column,4.091
"CODA1054: engineered receptor: R101M, L131F in SEQ ID NO: 33 (protein, synthetic sequence of chimeric LGIC) MRCSPGGVWLALAASLLHVSLQGEFQRKLYKELVKNYNPLERPVANDSQPLTVYFSLSLLQIMDVDEKNQVLTTNIWLQMSWTDHYLQWNVSEYPGVKTVMFPDGQIWKPDILLYNSADERFDATFHTNVFVNSSGHCQYLPPGIFKSSCPMDLKNFPMDVQTCKLKFGSWSYGGWSLDLQMQEADISGYIPNGEWDLVGIPGKRSERFYECCKEPYPDVTFTVTMRRRMGYYLIQMYIPSLLIVILSWISFWINMDAAPARVGLGITTVLTMTTQSSGSRASLPKVSYVKAIDIWMAVCLLFVFSALLEYAAVNFVSRQHKELLRFRRKRRHHKSPMLNLFQEDEAGEGRFNFSAYGMGPACLQAKDGISVKGANNSNTTNPPPAPSKSPEEMRKLFIQRAKKIDKISRIGFPMAFLIFNMFYWIIYKIVRREDVHNQ",YFP fluorescence quenching using CNL001 (percent quench),[1],21.932%
same,YFP fluorescence quenching using CNL001 (percent quench),[2],39.689%
same,YFP fluorescence quenching using TC-5619/Bradanicline (percent quench),[3],6.609%
same,YFP fluorescence quenching using TC-5619/Bradanicline (percent quench),[4],−7.635%
same,YFP fluorescence quenching using CNL001 (percent quench),[5],54.192%
same,YFP fluorescence quenching using CNL001 (percent quench),[6],64.111%
same,YFP fluorescence quenching using TC-5619/Bradanicline (percent quench),[7],4.459%
same,YFP fluorescence quenching using TC-6683 (percent quench),30 nM TC-6683,−22.996%
same,YFP fluorescence quenching using TC-5619/Bradanicline (percent quench),[8],69.782%
same,YFP fluorescence quenching using CNL001 (percent quench),[9],71.409%
same,YFP fluorescence quenching using CNL001 (percent quench),[10],70.989%
same,YFP fluorescence quenching using ABT-126 (percent quench),50 nM abt (ABT-126),−19.54%
same,YFP fluorescence quenching using CNL001 (percent quench),[11],74.148%
same,YFP fluorescence quenching using CNL001 (percent quench),[12],71.722%
same,YFP fluorescence quenching using ABT-126 (percent quench),100 nM abt (ABT-126),−18.28%
same,YFP fluorescence quenching using TC-5619/Bradanicline (percent quench),[13],77.633%
same,YFP fluorescence quenching using TC-6683 (percent quench),300 nM TC-6683,−27.055%
same,YFP fluorescence quenching using ABT-126 (percent quench),300 nM abt (ABT-126),−16.87%
same,YFP fluorescence quenching using TC-5619/Bradanicline (percent quench),[14],72.933%
same,YFP fluorescence quenching using CNL001 (percent quench),[15],71.378%
same,YFP fluorescence quenching using CNL001 (percent quench),[16],71.411%
same,YFP fluorescence quenching using ABT-126 (percent quench),1 uM abt (ABT-126),−11.77%
same,YFP fluorescence quenching using TC-6683 (percent quench),3 uM TC-6683,−18.611%
same,YFP fluorescence quenching (percent quench),10 uM ach (acetylcholine),−3.98%
same,YFP fluorescence quenching using TC-6683 (percent quench),30 uM TC-6683,−13.879%
same,YFP fluorescence quenching using TC-6683 (percent quench),100 uM TC-6683,−21.521%
same,YFP fluorescence quenching (percent quench),100 uM ach (acetylcholine),−10.34%
same,YFP fluorescence quenching (percent quench),300 uM ach (acetylcholine),−10.25%
same,YFP fluorescence quenching (percent quench),500 uM ach (acetylcholine),−11.46%
same,YFP fluorescence quenching (percent quench),1 mM ach (acetylcholine),1.77%
same,YFP fluorescence quenching (percent quench),3 mM ach (acetylcholine),36.81%
same,YFP fluorescence quenching (percent quench),10 mM ach (acetylcholine),74.02%
same,"YFP fluorescence quenching using Varenicline, 3 nM var",first column,34.923
same,"YFP fluorescence quenching using Varenicline, 3 nM var",second column,28.944
same,"YFP fluorescence quenching using Varenicline, 30 nM var",first column,42.214
same,"YFP fluorescence quenching using Varenicline, 30 nM var",second column,43.015
same,"YFP fluorescence quenching using Varenicline, 300 nM var",first column,47.059
same,"YFP fluorescence quenching using Varenicline, 300 nM var",second column,52.768
same,"YFP fluorescence quenching using Varenicline, 500 nM var",first column,59.542
same,"YFP fluorescence quenching using Varenicline, 500 nM var",second column,62.641
same,"YFP fluorescence quenching using Varenicline, 1 uM var",first column,71.449
same,"YFP fluorescence quenching using Varenicline, 1 uM var",second column,69.145
